The source of these data is IntAct's records for PubMed 22705208.

The chains are these.
B1: Fibroblast growth factor 12 (Homo sapiens), P61328-2 (parent)
chain: MESKEPQLKGIVTRLFSQQGYFLQMHPDGTIDGTKDENSDYTLFNLIPVGLRVVAIQGVKASLYVAMNGEGYLYSSDVFTPECKFKESVFENYYVIYSSTLYRQQESGRAWFLGLNKEGQIMKGNRVKKTKPSSHFVPKPIEVCMYREPSLHEIGEKQGRSRKSSGTPTMNGGKVVNQDST

Variants of B1 are the subject of the first assay. The note with it: with scn5a_human SCN5A.
As for K9E, the “effect of a mutation on the interaction” value is on record as “disrupting interaction strength”.

The next assay covers variants of B1. The note with it: with scn5a_human SCN5A. The source holds these as a separate data set.
Turning to K9E, the “effect of a mutation on the interaction” value was “decreasing interaction strength”.
